code X = not defined here; Su = not defined here
Experiments:
human IgG [1] = format: binding
Experimental: (§1) In addition, the following targets, all unfractionated IgGs, were also evaluated with selected immobilized peptides for species specificity characterization in a similar format: human IgG, goat IgG, bovine IgG, and mouse IgG (Sigma, product nos. I4506, I5256, I5506, and I15381, respectively). In addition, 10 μl aliquots of hydrolyzed NHS-activated Sepharose 4 Fast Flow (Amersham Pharmacia Biotech, product no. 17-0906-01) and immobilized recombinant Protein A (RepliGen Corp., product no. IPA-400) were also assayed as negative and positive controls. IgG targets were diluted into 10 mM phosphate buffer containing 150 mM NaCl and 0.01% Tween 20, pH 7.2 (PBST) or 50 mM Tris buffer containing, 150 mM NaCl and 0.01% Tween-20, pH 7.5 (TBST). Batch (static) binding and elution studies were conducted in a 96-well assay filterplate (Millipore MultiScreen-HV, with 0.45 μm Durapore membrane, product no. MAHVN4510). The target was allowed to incubate with the resin for 1-1.5 hours with shaking at room temperature. Unbound target was collected by centrifugation of samples from the assay plate directly into a low-UV absorbing 96-well collection plate (Costar, product no. 3635 or Greiner, product no. 655801). The unbound target was then quantitated by reading the absorbance at 280 nm (normalized to 1 cm pathlength, 1.4 mg/ml A280 extinction coefficient) of the collection plate on a microplate spectrophotometer (Molecular Devices Corp., SPECTRAmax PLUS) against a buffer blank.
(§2) The percentage bound target was determined by subtracting the mass determined as unbound from the corresponding condition's control values (control non-filtered added directly to the collection plate and/or the negative control). The assay plate was washed (3×) with 200 μl of binding buffer by vacuum filtration followed by addition of 100 μl of various elution conditions (e.g.: 0.1 M sodium bicarbonate buffer, pH 8.5 and/or 0.1 M sodium citrate buffer, pH 4.0). After a 30-60 minute incubation with shaking at room temperature, the eluted target was collected by centrifugation of the assay plate into another collection plate and quantitated in a similar manner. Percent elution of total load was then determined to characterize elution recovery efficiency under various conditions. The assay plate was then washed (3×) with 200 μl of binding buffer by vacuum filtration followed by addition of a resin cleaning condition (e.g., 0.1M CAPS buffer (3-[Cyclohexylamino]-1-propane-sulfonic acid), pH 11.5, to regenerate the resin for re-use. Percentage mass balance determination was calculated to be 90-100% on average.

human IgG [2] = test: Static (filterplate) binding capacity; conditions: Table 18; 25 mg human IgG applied per ml resin; average ligand density 1.9 μmole/ml
Experimental: These media were used to determine the effect of ligand density on human IgG binding capacity in both static (filterplate) and dynamic (mini-column) modes with commercial immobilized recombinant Protein A (Repligen, IPA400) at a single density as control. Actual ligand densities obtained ranged from 0.17 to 3.2 μmole/ml media as confirmed by quantitative amino acid analysis.
After incubation of the samples, with shaking, at room temperature for one hour, the supernatant liquid from each well, containing unbound IgG, was collected by centrifugation into the cognate well of a collection plate. The assay plate was washed three times with PBST (200 μl/wash) and bound IgG was eluted from the media samples by incubation for 30-60 minutes at room temperature in 100 μl Elution Buffer (100 mM CAPS, pH 11.5). Eluates were collected by centrifugation for analysis. Protein concentrations were determined from A280 measurements and plotted as a function of mg human IgG bound per ml resin vs. mg human IgG applied per ml resin.
The amount of IgG captured (estimated from IgG recovered in the elution step) by the various media is dependent upon both the IgG concentration and the ligand density. […] Under these static conditions, where both ligand and target concentrations are close to KD values, equilibrium binding is established and total capacities cannot be accurately determined. However, over the IgG range of 0 to 25 mg IgG applied per ml resin (0 to 2.5 mg/ml target added to 10 μl of resin), capture of IgG is linear. Beyond this point, up to a level of 200 mg IgG applied per ml resin, saturation becomes more pronounced.

human IgG1 = target: T1, human IgG1 (Homo sapiens, UniProt P01857); format: binding; conditions: Table 13
T1 construct: all human subtypes derived from myeloma patients; purchased Calbiochem 400120; host or cells: myeloma patients
Experimental: as §1, §2

human IgG2 = target: T2, human IgG2 (Homo sapiens, UniProt P01859); format: binding; conditions: Table 13
T2 construct: all human subtypes derived from myeloma patients; purchased Calbiochem 400122; host or cells: myeloma patients
Experimental: as §1, §2

mouse IgG = format: binding; conditions: Table 14; average ligand density 1.8 μM/ml
Experimental: as §1, §2

IgG4 = IgG4 (Homo sapiens, UniProt P01861); format: binding; parameters: all human subtypes derived from myeloma patients; purchased Calbiochem 400126; host or cells: myeloma patients; conditions: Table 13
Experimental: as §1, §2

T1 sequence (P01857 1-330 isoform P01857-1): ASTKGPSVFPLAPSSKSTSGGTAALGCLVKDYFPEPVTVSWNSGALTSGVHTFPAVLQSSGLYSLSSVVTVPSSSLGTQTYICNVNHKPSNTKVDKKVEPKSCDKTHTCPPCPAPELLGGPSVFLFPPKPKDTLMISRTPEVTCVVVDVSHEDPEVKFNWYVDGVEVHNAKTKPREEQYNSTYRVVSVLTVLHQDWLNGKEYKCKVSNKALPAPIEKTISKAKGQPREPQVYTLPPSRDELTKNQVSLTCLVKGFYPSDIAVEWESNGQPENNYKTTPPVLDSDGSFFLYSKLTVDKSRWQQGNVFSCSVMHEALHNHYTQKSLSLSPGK
T2 sequence (P01859 1-326 isoform P01859-1): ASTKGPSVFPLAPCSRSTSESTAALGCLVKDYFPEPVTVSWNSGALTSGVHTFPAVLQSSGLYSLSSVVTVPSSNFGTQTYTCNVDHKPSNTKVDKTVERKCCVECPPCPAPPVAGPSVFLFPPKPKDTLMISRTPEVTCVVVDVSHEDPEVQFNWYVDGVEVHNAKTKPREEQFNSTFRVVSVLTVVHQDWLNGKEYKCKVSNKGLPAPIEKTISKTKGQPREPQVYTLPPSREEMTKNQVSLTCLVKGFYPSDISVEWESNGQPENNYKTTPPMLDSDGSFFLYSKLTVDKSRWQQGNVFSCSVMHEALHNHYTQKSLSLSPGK
Sequence of IgG4 (P01861 1-327 isoform P01861-1): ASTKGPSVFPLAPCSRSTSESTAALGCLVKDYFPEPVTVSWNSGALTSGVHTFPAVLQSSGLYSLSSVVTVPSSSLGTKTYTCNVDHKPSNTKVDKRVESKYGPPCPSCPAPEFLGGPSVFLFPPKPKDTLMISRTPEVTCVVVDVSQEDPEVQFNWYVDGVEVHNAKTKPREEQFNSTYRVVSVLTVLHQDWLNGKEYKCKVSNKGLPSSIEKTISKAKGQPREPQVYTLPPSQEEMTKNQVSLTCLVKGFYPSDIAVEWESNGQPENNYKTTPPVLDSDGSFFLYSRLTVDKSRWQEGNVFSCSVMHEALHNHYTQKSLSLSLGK

## Ac-GDDHMCVYTTWGELIWCDNHEPG-X-Su-X-NH2 (Ac-GDDHMCVYTTWGELIWCDNHEPG-{code X-Su-code X-NH2}; not fully specified (bridges); printed as Ac-GDDHMCVYTTWGELIWCDNHEPG-X-Su-X-NH2; cysteine pairing not given here; reading uncertain) [DX878]
Human IgG [1]; Table 18, average ligand density 1.9 μmole/ml
  Batch Binding (% Capture of Total Load) hIgG: 63%
Human IgG [2]
  Static Cap.: 23 mg/mL

## Ac-GDSWNCAFHHNEMVWCDDGGTPGPEGGGK-NH2 (not fully specified (bridges); printed as Ac-GDSWNCAFHHNEMVWCDDGGTPGPEGGGK-NH2; cysteine pairing not given here) [DX597]
Human IgG1
  hIgG1 elution pH 2.5 (% of Total Load): 76%
  hIgG1 elution pH 3.5 (% of Total Load): 81%
  hIgG1 elution pH 4.5 (% of Total Load): 39%
  hIgG1 elution pH 5.5 (% of Total Load): 1%
  hIgG1 elution pH 9.0 (% of Total Load): 52%
  hIgG1 elution pH 9.5 (% of Total Load): 57%
Human IgG2
  hIgG2 elution pH 2.5 (% of Total Load): 82%
  hIgG2 elution pH 3.5 (% of Total Load): 80%
  hIgG2 elution pH 4.5 (% of Total Load): 38%
  hIgG2 elution pH 5.5 (% of Total Load): 1%
  hIgG2 elution pH 9.0 (% of Total Load): 51%
  hIgG2 elution pH 9.5 (% of Total Load): 60%
Human IgG [1]; Table 14, average ligand density 1.8 μM/ml
  % IgG Capture - Batch Binding, Human IgG: 77%
Mouse IgG
  % IgG Capture - Batch Binding, Mouse IgG: 3%
IgG4
  hIgG4 elution pH 2.5 (% of Total Load): 50%
  hIgG4 elution pH 3.5 (% of Total Load): 62%
  hIgG4 elution pH 4.5 (% of Total Load): 13%
  hIgG4 elution pH 5.5 (% of Total Load): 3%
  hIgG4 elution pH 9.0 (% of Total Load): 56%
  hIgG4 elution pH 9.5 (% of Total Load): 67%
